# Earlier results in patent publication US12268667B2, “JAK1 pathway inhibitors for the treatment of prurigo nodularis” (Incyte Corporation, priority 2021, dated 2025).
# Key:
# IL-31 = conditions: cited from earlier work
# PN lesional skin = conditions: PN skin cultured with nemolizumab; cited from earlier work
molecule,measurement,setting,value
"nemolizumab (antibody, chains of the INN, looked up) heavy: QVQLVQSGAEVKKPGASVKVSCKASGYTFTGYIMNWVRQAPGQGLEWMGLINPYNGGTDYNPQFQDRVTITADKSTSTAYMELSSLRSEDTAVYYCARDGYDDGPYTLETWGQGTLVTVSSASTKGPSVFPLAPSSKSTSGGTAALGCLVKDYFPEPVTVSWNSGALTSGVHTFPAVLQSSGLYSLSSVVTVPSSNFGTQTYTCNVDHKPSNTKVDKTVERKSCVECPPCPAPPVAGPSVFLFPPKPKDTLMISRTPEVTCVVVDVSQEDPEVQFNWYVDGVEVHNAKTKPREEQFNSTFRVVSVLTVVHQDWLNGKEYKCKVSNKGLPAPIEKTISKTKGQPREPQVYTLPPSQEEMTKNQVSLTCLVKGFYPSDIAVEWESNGQPENNYKTTPPMLDSDGSFFLYSKLTVDKSRWQEGNVFSCSVMHEALHNHYTQKSLSLSP light: DIQMTQSPSSLSASVGDRVTITCQASEDIYSFVAWYQQKPGKAPKLLIYNAQTEAQGVPSRFSGSGSGTDFTLTISSLQPEDFATYYCQHHYDSPLTFGGGTKVEIKRTVAAPSVFIFPPSDEQLKSGTASVVCLLNNFYPREAKVQWKVDNALQSGNSQESVTEQDSKDSTYSLSSTLTLSKADYEKHKVYACEVTHQGLSSPVTKSFNRGEC",effect on pruritus and skin lesions in PN patients,IL-31,improvement in pruritus and skin lesions
same,IL-17 levels in lesional skin,PN lesional skin,reduction in IL-17 levels
